Test results taken from IntAct's records for PubMed 20969867.
Each block holds one substance with its values, some of them ahead of it.

Experiments:
kmt2a_human KMT2A [1] = biological target: kmt2a_human KMT2A (UniProt Q03164)
kmt2a_human KMT2A [2] = biological target: kmt2a_human KMT2A (UniProt Q03164); remark: listed apart in the source
kmt2a_human KMT2A [3] = biological target: kmt2a_human KMT2A (UniProt Q03164); remark: listed apart in the source
kmt2a_human KMT2A [4] = biological target: kmt2a_human KMT2A (UniProt Q03164); remark: listed apart in the source
kmt2a_human KMT2A [5] = biological target: kmt2a_human KMT2A (UniProt Q03164); remark: listed apart in the source
kmt2a_human KMT2A [6] = biological target: kmt2a_human KMT2A (UniProt Q03164); remark: listed apart in the source
kmt2a_human KMT2A [7] = biological target: kmt2a_human KMT2A (UniProt Q03164); remark: listed apart in the source

Sequence of kmt2a_human KMT2A (Q03164 whole entry): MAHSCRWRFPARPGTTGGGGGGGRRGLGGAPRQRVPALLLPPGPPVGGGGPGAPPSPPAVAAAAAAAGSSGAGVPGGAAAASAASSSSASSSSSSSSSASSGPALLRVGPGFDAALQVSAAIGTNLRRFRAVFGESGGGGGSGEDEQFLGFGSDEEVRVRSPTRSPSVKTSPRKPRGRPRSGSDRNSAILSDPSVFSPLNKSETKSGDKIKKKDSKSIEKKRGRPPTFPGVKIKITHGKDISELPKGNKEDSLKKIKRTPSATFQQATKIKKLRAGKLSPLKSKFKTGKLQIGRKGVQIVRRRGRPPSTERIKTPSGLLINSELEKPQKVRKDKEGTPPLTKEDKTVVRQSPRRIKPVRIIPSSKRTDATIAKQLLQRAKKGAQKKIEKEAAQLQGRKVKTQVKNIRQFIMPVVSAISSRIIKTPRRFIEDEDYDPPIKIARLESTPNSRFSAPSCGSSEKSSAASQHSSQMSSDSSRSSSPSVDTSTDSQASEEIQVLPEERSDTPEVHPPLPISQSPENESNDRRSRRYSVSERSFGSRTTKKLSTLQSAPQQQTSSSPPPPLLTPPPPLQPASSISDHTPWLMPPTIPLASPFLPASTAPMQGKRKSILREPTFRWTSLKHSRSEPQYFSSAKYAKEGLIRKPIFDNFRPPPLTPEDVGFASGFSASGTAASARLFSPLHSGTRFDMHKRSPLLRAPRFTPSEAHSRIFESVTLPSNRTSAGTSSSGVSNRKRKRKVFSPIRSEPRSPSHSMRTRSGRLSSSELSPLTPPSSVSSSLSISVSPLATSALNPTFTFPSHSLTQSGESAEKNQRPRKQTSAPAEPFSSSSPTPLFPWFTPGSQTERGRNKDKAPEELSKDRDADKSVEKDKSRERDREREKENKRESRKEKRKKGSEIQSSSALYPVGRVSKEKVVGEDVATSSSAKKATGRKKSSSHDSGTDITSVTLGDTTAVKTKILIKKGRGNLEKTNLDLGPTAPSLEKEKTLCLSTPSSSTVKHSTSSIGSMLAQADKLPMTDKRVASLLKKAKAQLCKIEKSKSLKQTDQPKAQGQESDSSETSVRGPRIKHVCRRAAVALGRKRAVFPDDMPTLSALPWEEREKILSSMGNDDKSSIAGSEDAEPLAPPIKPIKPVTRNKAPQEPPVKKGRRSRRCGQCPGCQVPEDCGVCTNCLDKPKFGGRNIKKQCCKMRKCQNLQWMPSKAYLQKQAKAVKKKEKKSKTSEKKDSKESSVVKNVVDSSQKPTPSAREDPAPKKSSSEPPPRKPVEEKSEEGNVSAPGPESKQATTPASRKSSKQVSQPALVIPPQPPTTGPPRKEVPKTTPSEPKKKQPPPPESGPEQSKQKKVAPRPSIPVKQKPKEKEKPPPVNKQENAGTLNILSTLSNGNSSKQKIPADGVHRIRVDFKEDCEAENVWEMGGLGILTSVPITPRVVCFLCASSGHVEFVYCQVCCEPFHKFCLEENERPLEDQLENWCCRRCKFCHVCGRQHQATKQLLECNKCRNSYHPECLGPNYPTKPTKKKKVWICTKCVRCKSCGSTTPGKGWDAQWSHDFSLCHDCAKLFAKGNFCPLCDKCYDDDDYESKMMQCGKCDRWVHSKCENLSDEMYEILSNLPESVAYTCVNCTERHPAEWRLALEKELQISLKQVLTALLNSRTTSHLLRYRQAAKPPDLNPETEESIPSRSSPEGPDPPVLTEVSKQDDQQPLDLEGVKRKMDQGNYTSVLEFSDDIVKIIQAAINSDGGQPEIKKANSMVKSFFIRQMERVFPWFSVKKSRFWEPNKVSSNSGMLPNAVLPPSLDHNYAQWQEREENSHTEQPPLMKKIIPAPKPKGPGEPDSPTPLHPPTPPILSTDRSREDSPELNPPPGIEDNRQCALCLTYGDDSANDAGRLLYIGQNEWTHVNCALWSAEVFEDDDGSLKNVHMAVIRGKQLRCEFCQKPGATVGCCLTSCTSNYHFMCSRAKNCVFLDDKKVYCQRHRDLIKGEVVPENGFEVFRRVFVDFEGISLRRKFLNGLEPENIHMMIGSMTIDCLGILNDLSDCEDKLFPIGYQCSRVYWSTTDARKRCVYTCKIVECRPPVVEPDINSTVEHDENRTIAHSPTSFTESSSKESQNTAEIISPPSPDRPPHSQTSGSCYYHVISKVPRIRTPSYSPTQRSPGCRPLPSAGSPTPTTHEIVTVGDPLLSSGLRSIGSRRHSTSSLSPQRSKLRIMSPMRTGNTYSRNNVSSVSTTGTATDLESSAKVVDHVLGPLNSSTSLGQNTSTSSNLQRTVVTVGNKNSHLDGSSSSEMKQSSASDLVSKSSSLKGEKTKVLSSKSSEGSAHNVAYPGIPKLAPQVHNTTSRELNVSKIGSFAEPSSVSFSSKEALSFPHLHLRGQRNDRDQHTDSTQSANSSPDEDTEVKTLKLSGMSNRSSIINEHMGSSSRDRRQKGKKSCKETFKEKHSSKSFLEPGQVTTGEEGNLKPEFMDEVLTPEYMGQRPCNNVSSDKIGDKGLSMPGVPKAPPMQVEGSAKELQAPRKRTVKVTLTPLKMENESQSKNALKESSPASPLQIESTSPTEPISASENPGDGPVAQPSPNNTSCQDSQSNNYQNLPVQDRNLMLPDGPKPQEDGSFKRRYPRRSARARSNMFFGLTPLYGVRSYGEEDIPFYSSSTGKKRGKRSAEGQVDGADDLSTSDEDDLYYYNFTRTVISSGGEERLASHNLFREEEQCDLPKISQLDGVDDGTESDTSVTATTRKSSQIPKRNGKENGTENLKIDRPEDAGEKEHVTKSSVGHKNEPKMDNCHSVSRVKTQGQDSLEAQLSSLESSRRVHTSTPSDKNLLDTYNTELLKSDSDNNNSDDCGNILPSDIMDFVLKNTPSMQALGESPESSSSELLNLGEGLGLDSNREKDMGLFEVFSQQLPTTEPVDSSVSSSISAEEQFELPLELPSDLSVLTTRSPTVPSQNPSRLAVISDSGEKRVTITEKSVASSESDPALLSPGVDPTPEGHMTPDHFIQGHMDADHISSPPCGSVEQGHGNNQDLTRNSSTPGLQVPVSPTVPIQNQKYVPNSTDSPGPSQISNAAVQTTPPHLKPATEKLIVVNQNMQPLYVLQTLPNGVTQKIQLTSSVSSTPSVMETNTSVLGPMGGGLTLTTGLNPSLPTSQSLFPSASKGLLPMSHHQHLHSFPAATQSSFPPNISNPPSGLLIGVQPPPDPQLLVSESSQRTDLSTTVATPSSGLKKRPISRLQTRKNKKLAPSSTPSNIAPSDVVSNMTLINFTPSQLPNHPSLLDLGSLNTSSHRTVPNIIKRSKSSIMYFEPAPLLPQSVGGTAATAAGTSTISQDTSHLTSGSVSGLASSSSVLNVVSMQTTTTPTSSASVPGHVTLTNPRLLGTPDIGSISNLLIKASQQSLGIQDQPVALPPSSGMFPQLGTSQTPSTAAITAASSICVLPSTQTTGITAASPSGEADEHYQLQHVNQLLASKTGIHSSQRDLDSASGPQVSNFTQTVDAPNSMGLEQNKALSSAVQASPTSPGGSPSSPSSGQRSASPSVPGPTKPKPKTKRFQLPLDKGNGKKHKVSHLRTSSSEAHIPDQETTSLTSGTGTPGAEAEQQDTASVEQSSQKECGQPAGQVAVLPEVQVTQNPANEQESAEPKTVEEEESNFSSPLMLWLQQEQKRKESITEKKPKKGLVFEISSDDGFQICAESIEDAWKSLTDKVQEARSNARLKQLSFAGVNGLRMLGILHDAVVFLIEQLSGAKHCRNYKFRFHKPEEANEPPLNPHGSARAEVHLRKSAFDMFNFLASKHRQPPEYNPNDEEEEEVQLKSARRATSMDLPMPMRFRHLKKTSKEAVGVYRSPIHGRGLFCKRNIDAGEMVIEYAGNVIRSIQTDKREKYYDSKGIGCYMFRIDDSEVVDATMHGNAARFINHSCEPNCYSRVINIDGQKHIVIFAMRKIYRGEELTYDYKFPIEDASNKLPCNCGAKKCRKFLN

Substance: Histone lysine acetyltransferase CREBBP (Mus musculus), P45481 F612A
effect of a mutation on the interaction (kmt2a_human KMT2A [1]): decreasing interaction

Substance: Histone lysine acetyltransferase CREBBP (Mus musculus), P45481 L664A
effect of a mutation on the interaction (kmt2a_human KMT2A [4]): decreasing interaction

More lines, now with the values ahead:

effect of a mutation on the interaction (kmt2a_human KMT2A [2]): disrupting interaction
effect of a mutation on the interaction (kmt2a_human KMT2A [3]): decreasing interaction
Substance: Histone lysine acetyltransferase CREBBP (Mus musculus), P45481 L628A

effect of a mutation on the interaction (kmt2a_human KMT2A [5]): decreasing interaction
Substance: Histone lysine acetyltransferase CREBBP (Mus musculus), P45481 R624A

effect of a mutation on the interaction (kmt2a_human KMT2A [6]): decreasing interaction
Substance: Histone lysine acetyltransferase CREBBP (Mus musculus), P45481 R668A

effect of a mutation on the interaction (kmt2a_human KMT2A [7]): decreasing interaction
Substance: Histone lysine acetyltransferase CREBBP (Mus musculus), P45481 Y631A
